Data from patent publication US20260167699A1 (Chugai, published 2026).

Tests used:
Test in all cases: SPR (Biacore), as the text refers to Example 3
[1] = molecular target: T1, FcγRIIa H extracellular domain with C-terminal His tag (UniProt P12318 34-217, limits assumed)
T1 construct: extracellular domain; also called 2aH
T1 sequence: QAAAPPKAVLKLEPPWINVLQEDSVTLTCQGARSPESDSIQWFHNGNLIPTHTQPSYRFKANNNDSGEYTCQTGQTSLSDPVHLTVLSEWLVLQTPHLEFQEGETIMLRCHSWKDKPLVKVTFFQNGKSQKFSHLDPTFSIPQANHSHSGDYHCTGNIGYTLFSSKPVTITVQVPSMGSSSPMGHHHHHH

[2] = molecular target: T2, FcγRIIa R extracellular domain with C-terminal His tag (UniProt P12318 34-217, limits assumed)
T2 construct: extracellular domain; also called 2aR
T2 sequence: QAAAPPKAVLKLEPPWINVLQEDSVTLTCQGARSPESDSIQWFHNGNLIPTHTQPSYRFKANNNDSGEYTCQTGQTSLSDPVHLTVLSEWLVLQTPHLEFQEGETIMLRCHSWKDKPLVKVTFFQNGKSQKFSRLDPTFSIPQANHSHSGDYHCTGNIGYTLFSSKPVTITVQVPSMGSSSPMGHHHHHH

[3] = molecular target: T3, FcγRIIb extracellular domain with C-terminal His tag (UniProt P31994 43-217, limits assumed)
T3 construct: extracellular domain; also called 2b
T3 sequence: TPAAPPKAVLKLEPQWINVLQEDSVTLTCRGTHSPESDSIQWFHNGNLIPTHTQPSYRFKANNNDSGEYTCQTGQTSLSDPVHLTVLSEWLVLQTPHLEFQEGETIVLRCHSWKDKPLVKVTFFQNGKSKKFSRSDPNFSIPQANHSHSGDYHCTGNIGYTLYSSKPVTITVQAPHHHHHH

[4] = molecular target: T4, FcγRIa extracellular domain with C-terminal His tag (UniProt P12314 16-292, limits assumed)
T4 construct: extracellular domain; also called 1a
T4 sequence (P12314 other isoform, or with tags, fused parts or gaps limits assumed): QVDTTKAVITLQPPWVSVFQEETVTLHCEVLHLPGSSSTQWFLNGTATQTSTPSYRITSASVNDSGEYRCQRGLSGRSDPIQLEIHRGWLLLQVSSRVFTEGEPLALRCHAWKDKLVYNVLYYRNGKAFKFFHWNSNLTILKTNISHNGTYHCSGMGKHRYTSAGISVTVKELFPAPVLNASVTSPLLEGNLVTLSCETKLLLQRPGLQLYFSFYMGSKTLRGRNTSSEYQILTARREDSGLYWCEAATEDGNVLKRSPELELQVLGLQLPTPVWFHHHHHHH

Measured: binding result

B1: GpH7-B3/GpL16-k0 (antibody, human IgG1, kappa)
heavy: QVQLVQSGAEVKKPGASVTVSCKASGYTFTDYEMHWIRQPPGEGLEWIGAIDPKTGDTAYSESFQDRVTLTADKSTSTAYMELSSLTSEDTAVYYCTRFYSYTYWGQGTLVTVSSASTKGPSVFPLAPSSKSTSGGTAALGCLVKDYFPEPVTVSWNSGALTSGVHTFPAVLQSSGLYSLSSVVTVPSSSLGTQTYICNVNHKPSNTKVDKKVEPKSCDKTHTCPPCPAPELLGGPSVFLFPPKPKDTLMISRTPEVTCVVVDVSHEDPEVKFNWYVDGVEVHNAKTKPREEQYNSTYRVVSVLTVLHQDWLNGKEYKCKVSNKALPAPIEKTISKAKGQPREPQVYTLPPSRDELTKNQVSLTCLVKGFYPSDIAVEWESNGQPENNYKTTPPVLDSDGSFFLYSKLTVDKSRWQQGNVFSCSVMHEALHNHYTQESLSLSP
light: DIVMTQSPLSLPVTPGEPASISCQASESLVHSNRNTYLHWYLQKPGQSPQLLIYKVSNRFSGVPDRFSGSGSGTDFTLKISRVEAEDVGVYYCSQNTHVPPTFGQGTKVEIERTVAAPSVFIFPPSDEQLKSGTASVVCLLNNFYPREAKVQWKVDNALQSGNSQESVTEQDSKDSTYSLSSTLTLSKADYEKHKVYACEVTHQGLSSPVTKSFNRGEC
notes: also called HoCon Ab
binds: all assays above
